From US20130236458A1 (AbbVie / Abbott, published 2013)

Legend:
[1] = biological target: T1, Recombinant Human IL-13 (human, UniProt P35225 35-146, limits assumed); test: cell-based or functional assay
[2] = biological target: T2, Recombinant Human IL-17 (human, UniProt Q16552 20-155, limits assumed); test: cell-based or functional assay
T2 sequence (looked up): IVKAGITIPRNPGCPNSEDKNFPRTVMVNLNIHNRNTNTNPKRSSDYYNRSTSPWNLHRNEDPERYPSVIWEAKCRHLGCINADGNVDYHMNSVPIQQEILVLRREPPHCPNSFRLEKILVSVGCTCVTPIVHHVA

[3] = biological target: T1, Recombinant Human IL-13; test: SPR (Biacore)
Summary of the method: (§1)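 Antibodies or DVD-Ig captured on anti-mouse IgG (Fcγ) CM5 surface; antigen injected at 10–200 nM in HBS-EP, pH 7.4, 25 °C, 25 µL/min. kon and koff from global 1:1 Langmuir fit; KD = koff/kon.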

[4] = biological target: T2, Recombinant Human IL-17; test: SPR (Biacore)
Summary of the method: as §1

T1 sequence (P35225 35-146 limits assumed): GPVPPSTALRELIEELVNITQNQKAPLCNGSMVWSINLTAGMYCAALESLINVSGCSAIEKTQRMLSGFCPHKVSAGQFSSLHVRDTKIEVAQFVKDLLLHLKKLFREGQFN

B1: DVD2192 (bispecific antibody)
VH: EVQLVQSGAEVKKPGASVKVSCKASGYTFTSYWMHWVRQAPGQGLEWIGNINPKGGSNIYNEKFQGRVTMTRDTSISTAYMELSRLRSDDTAVYYCARLDYFGDSFDLWGQGTTVTVSSASTKGPEVQLVQSGAEVKKPGSSVKVSCKASGGSFGGYGIGWVRQAPGQGLEWMGGITPFFGFADYAQKFQGRVTITADESTTTAYMELSGLTSDDTAVYYCARDPNEFWNGYYSTHDFDSWGQGTTVTVSS
VL: DIQMTQSPSSLSASVGDRVTITCRASQGIRNYLNWYQQKPGKAPKLLIYYASNLEVGVPSRFSGSGSGTDYTLTISSLQPEDFATYYCQQDNRFPYTFGGGTKVEIKRTVAAPSVFIFPPEIVLTQSPDFQSVTPKEKVTITCRASQDIGSELHWYQQKPDQPPKLLIKYASHSTSGVPSRFSGSGSGTDFTLTINGLEAEDAGTYYCHQTDSLPYTFGPGTKVDIKR
notes: DVD-Ig; also called DVD2192H; DVD2192L
- N-Terminal VD IL13 Neutralization Assay IC50 [1]: 0.056 nM
- C-Terminal VD IL17 Neutralization Assay IC50 [2]: 0.015 nM
- Kd [3]: 0.035 nM
- koff [3]: 5.1e-05 s⁻¹
- kon [3]: 1.5e+06 M⁻¹ s⁻¹
- Kd [4]: < 0.0038 nM
- koff [4]: < 1e-06 s⁻¹
- kon [4]: 260000 M⁻¹ s⁻¹
